In PMC3574147, “Association of RNAs with Bacillus subtilis Hfq”:

Molecular target: T1, Hfq (Bacillus subtilis, UniProt O31796 1-73)
T1 sequence: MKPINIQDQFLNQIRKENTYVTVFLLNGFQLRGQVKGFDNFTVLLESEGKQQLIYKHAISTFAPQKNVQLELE
Test: EMSA; 10 mM Mg2+, 2.5 ng/ul yeast tRNA; 50 mM Hepes pH 7.5, 150 mM NaCl, 10 mM MgCl2, 2.5 ng/ul yeast tRNA, ~2 fmol RNA in 10 ul, 30 min at 25 C; 5% native TBE PAGE
Details: protein: recombinant; tags: His6 (pHisII vector); chain copies: 6; label: 32P (gamma-32P ATP)

B1: SR4 antitoxin RNA (structured_RNA)
RNA: GGGUAAUGAUACAAUUAUAUAAUUAUUUUUUGCAUUUUGUUUAAUUAAAUGCAAAGCUGCCCAUCAAAGGGCUUGCUCGUUGUCAAAUCUUAAAAUAAAAAGACCAGGGUGUUGGUAGCACCCUGGCUCUGUACAAGCGUAGGCCUAACCCUUCAGGUGUCCAAACUCAAGGGAAGGUCUAUUUUUU
- binding result: binds
